Test results: patent US20150158938A1 (SNU R AND DB FOUNDATION, published 2015)

Target: T1, vascular endothelial growth factor receptor-2 (VEGFR2) on HUVEC (human, UniProt P35968 20-1356)
T1 construct: whole, on cells
Test: flow cytometry on HUVEC (express VEGFR2), FITC anti-His detection

T1 sequence (P35968 20-1356): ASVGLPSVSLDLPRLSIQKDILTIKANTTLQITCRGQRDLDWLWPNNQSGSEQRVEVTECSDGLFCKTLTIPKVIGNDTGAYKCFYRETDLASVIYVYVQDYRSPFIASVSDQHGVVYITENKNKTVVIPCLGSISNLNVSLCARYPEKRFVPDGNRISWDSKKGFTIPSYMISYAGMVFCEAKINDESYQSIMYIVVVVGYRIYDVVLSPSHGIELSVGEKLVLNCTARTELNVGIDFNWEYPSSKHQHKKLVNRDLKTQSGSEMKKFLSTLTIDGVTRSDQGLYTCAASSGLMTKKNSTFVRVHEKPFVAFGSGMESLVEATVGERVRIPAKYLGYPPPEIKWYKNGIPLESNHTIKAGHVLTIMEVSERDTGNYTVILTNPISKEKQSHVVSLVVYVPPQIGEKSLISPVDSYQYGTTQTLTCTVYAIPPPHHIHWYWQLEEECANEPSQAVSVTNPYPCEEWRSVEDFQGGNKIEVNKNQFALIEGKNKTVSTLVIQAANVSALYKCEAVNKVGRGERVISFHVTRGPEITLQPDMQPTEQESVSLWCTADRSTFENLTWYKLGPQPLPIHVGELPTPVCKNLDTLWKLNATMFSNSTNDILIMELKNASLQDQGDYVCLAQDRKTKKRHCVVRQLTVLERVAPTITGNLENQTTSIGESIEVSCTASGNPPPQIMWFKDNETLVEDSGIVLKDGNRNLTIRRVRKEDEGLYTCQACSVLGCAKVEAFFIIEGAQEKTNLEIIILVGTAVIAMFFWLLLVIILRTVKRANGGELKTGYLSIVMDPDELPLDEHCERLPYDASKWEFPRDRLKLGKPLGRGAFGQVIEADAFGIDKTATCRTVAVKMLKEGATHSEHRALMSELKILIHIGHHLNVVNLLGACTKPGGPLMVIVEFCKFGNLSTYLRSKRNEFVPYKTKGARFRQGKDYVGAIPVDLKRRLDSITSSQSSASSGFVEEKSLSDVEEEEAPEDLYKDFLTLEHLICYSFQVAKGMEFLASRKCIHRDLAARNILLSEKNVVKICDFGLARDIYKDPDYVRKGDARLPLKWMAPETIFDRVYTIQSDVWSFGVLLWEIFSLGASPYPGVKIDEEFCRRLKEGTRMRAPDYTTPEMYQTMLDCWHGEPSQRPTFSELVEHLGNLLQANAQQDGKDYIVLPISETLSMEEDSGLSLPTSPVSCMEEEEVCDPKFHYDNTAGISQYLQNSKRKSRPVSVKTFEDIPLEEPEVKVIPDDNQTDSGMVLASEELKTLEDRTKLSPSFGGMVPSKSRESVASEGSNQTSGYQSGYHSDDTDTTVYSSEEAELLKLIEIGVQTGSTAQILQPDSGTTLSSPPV

binding result: no binding (tested: 100 nM)
B1: His-tagged gremlin-1 (R&D Systems) (ligand, UniProt O60565 25-184, looked up)
chain: KKKGSQGAIPPPDKAQHNDSEQTQSPQQPGSRNRGRGQGRGTAMPGEEVLESSQEALHVTERKYLKRDWCKTQPLKQTIHEEGCNSRTIINRFCYGQCNSFYIPRHIRKEEGSFQSCSFCKPKKFTTMMVTLNCPELQPPTKKKRVTRVKQCRCISIDLD
notes: Commercial protein; not shown: His tag
